Experimental data: patent publication US20250320281A1

Tests used:
Experiment in all cases: cell-based or functional assay
[1] = target: HIV-1 Env of isolate MGRM-C-001 (HIV-1)
[2] = target: HIV-1 Env of isolate MGRM-C-002 (HIV-1)
[3] = target: HIV-1 Env of isolate MGRM-C-013 (HIV-1)
[4] = target: HIV-1 Env of isolate MGRM-C-023 (HIV-1)
[5] = target: HIV-1 Env of isolate MGRM-C-015 (HIV-1)
[6] = target: HIV-1 Env of isolate MGRM-C-022 (HIV-1)
[7] = target: HIV-1 Env of isolate MGRM-C-006 (HIV-1)
[8] = target: HIV-1 Env of isolate MGRM-C-004 (HIV-1)
[9] = target: HIV-1 Env of isolate MGRM-C-008 (HIV-1)
[10] = target: HIV-1 Env of isolate MGRM-C-025 (HIV-1)
[11] = target: HIV-1 Env of isolate MGRM-C-007 (HIV-1)
[12] = target: HIV-1 Env of isolate MGRM-C-024 (HIV-1)
[13] = target: HIV-1 Env of isolate MGRM-C-010 (HIV-1)
[14] = target: HIV-1 Env of isolate MGRM-C-017 (HIV-1)
[15] = target: HIV-1 Env of isolate MGRM-C-005 (HIV-1)
[16] = target: HIV-1 Env of isolate MGRM-C-009 (HIV-1)
[17] = target: HIV-1 Env of isolate MGRM-C-019 (HIV-1)
[18] = target: HIV-1 Env of isolate MGRM-C-020 (HIV-1)
[19] = target: HIV-1 Env of isolate MGRM-C-014 (HIV-1)
[20] = target: HIV-1 Env of isolate MGRM-C-012 (HIV-1)
[21] = target: HIV-1 MGRM-C-026 Env (pseudovirus) (HIV-1)
[22] = target: HIV-1 NL43 Env (pseudovirus) (HIV-1)
[23] = target: HIV-1 MGRM-C-027 Env (pseudovirus) (HIV-1)
[24] = target: HIV-1 93IN905 Env (pseudovirus) (HIV-1)
[25] = target: HIV-1 APV6 Env (pseudovirus) (HIV-1)
[26] = target: HIV-1 JRCSF Env (pseudovirus) (HIV-1) (UniProt P20871)
[27] = target: HIV-1 92RW020 Env (pseudovirus) (HIV-1)
[28] = target: HIV-1 92TH021 Env (pseudovirus) (HIV-1)
[29] = target: HIV-1 MGRM-D-018 Env (pseudovirus) (HIV-1)
[30] = target: HIV-1 MGRM-A-010 Env (pseudovirus) (HIV-1)
[31] = target: HIV-1 94UG103 Env (pseudovirus) (HIV-1)
[32] = target: HIV-1 MGRM-C-028 Env (pseudovirus) (HIV-1)
[33] = target: HIV-1 92UG024 Env (pseudovirus) (HIV-1)
[34] = target: HIV-1 CMU02 Env (pseudovirus) (HIV-1)
[35] = target: HIV-1 92UG005 Env (pseudovirus) (HIV-1)

Chain of 4995_E20 (PGT-142) (antibody) (VH): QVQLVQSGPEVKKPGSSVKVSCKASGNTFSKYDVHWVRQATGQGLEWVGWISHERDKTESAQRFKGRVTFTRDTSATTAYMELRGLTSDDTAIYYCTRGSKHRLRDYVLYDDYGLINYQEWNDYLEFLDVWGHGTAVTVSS
Chain of 4995_E20 (PGT-142) (antibody) (VL): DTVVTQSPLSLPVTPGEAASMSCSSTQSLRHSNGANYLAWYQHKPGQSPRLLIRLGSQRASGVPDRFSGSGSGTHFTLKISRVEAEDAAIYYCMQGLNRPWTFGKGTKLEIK
Chain of 4970_K22 (PGT-144) (antibody) (VH): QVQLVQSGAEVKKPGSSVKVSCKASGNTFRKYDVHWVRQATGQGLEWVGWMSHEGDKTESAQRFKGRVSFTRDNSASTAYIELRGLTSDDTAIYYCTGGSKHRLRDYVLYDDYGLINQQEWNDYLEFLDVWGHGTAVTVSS
Chain of 4970_K22 (PGT-144) (antibody) (VL): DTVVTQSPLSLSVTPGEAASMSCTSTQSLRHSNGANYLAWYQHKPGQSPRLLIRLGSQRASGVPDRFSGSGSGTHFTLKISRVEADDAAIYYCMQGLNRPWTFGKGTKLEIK
Chain of 1443_C16 (PG16) (TCN-116) (antibody) (VH): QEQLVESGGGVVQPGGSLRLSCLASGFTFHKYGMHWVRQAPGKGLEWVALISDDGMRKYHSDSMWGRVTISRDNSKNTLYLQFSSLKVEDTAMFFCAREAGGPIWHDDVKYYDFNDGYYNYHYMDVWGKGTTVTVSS
Chain of 1443_C16 (PG16) (TCN-116) (antibody) (VL): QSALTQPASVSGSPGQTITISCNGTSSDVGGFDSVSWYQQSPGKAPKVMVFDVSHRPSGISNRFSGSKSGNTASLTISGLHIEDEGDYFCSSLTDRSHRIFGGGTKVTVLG
Chain of 4980_N08 (PGT-143) (antibody) (VH): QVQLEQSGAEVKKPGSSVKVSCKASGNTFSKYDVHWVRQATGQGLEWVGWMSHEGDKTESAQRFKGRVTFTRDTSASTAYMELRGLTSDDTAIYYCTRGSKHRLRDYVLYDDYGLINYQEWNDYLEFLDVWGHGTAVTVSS
Chain of 4980_N08 (PGT-143) (antibody) (VL): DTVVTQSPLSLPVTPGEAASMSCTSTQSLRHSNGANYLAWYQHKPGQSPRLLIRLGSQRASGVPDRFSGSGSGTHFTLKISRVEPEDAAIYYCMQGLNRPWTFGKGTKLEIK
Chain of 4993_K13 (PGT-141) (antibody) (VH): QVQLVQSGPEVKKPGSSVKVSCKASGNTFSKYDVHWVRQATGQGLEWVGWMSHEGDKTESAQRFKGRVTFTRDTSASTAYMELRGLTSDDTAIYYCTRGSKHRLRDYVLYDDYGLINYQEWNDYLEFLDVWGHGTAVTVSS

Substance | IC50 [1] [µg/mL] | IC50 [2] [µg/mL] | IC50 [3] [µg/mL] | IC50 [4] [µg/mL] | IC50 [5] [µg/mL] | IC50 [6] [µg/mL] | IC50 [7] [µg/mL] | IC50 [8] [µg/mL] | IC50 [9] [µg/mL] | IC50 [10] [µg/mL] | IC50 [11] [µg/mL] | IC50 [12] [µg/mL] | IC50 [13] [µg/mL] | IC50 [14] [µg/mL] | IC50 [15] [µg/mL] | IC50 [16] [µg/mL] | IC50 [17] [µg/mL] | IC50 [18] [µg/mL] | IC50 [19] [µg/mL] | IC50 [20] [µg/mL] | also measured
4E10 (antibody) | 5.66 | 18.2 | 2.1 | 1.95 | 2.52 | 5.71 | 4.94 | 24.2 | 2.97 | 5.58 | 5.84 | 22.6 | 11 | 1.47 | 16.4 | 0.56 | 3.49 | 2.8 | 2.48 | 0.44 | –
1496_C09 (PG9) (TCN-109) (antibody) | – | – | – | 0.51 | 0.5 | 0.19 | 0.23 | 1.18 | – | 0.17 | 0.09 | 0.22 | 12.4 | 1.52 | 2.98 | – | 0.01 | – | 0.64 | 0.24 | neutralization IC50 (pseudovirus) [21]: 0.113 µg/mL; neutralization IC50 (pseudovirus) [22]: 0.687 µg/mL; neutralization IC50 (pseudovirus) [23]: 2.45 µg/mL; neutralization IC50 (pseudovirus) [24]: 0.048 µg/mL; neutralization IC50 (pseudovirus) [25]: 0.214 µg/mL; neutralization IC50 (pseudovirus) [26]: 0.0048 µg/mL; neutralization IC50 (pseudovirus) [27]: 0.161 µg/mL; neutralization IC50 (pseudovirus) [28]: 0.103 µg/mL; neutralization IC50 (pseudovirus) [29]: 2.04 µg/mL; neutralization IC50 (pseudovirus) [30]: 0.0375 µg/mL; neutralization IC50 (pseudovirus) [31]: 0.31 µg/mL; neutralization IC50 (pseudovirus) [32]: 0.121 µg/mL; neutralization IC50 (pseudovirus) [33]: 1.91 µg/mL
1443_C16 (PG16) (TCN-116) (antibody) | 16.8 | 28.3 | > 50 | 0.09 | 0.26 | 0.25 | 2.62 | 5.09 | > 50 | 0.04 | 0.05 | 0.04 | > 50 | 1.8 | 2.55 | > 50 | 0.002 | > 50 | > 50 | 0.48 | –
VRC01 (antibody) | – | – | – | – | – | – | – | – | – | – | – | – | – | – | – | – | – | – | – | – | IC50 (µg/mL), pseudovirus neutralization [4]: 0.077 µg/mL; IC50 (µg/mL), pseudovirus neutralization [5]: 1.57 µg/mL; IC50 (µg/mL), pseudovirus neutralization [6]: 13 µg/mL; IC50, pseudovirus neutralization [8]: 1.01 µg/mL; IC50 (µg/mL), pseudovirus neutralization [10]: 2.36 µg/mL; IC50 (µg/mL), pseudovirus neutralization [12]: 3.4 µg/mL; IC50 (µg/mL), pseudovirus neutralization [14]: 0.366 µg/mL; IC50 (µg/mL), pseudovirus neutralization [17]: 1.13 µg/mL; IC50 (µg/mL), pseudovirus neutralization [18]: 0.396 µg/mL; IC50 (µg/mL), pseudovirus neutralization [19]: > 50 µg/mL
4995_E20 (PGT-142) (antibody) | – | – | – | – | – | – | – | – | – | – | – | – | – | – | – | – | – | – | – | – | IC50 (neutralizing activity, pseudovirus) [21]: > 10 µg/mL; IC50 (neutralizing activity, pseudovirus) [34]: > 10 µg/mL; IC50 (neutralizing activity, pseudovirus) [22]: 0.712 µg/mL; IC50 (neutralizing activity, pseudovirus) [23]: 0.272 µg/mL; IC50 (neutralizing activity, pseudovirus) [24]: 0.0017 µg/mL; IC50 (neutralizing activity, pseudovirus) [25]: 5.42 µg/mL; IC50 (neutralizing activity, pseudovirus) [26]: 0.0085 µg/mL; neutralization IC50 (pseudovirus) [27]: > 10 µg/mL; IC50 (neutralizing activity, pseudovirus) [28]: 0.0022 µg/mL; IC50 (neutralizing activity, pseudovirus) [35]: > 10 µg/mL; IC50 (neutralizing activity, pseudovirus) [29]: > 10 µg/mL; IC50 (neutralizing activity, pseudovirus) [30]: 0.0578 µg/mL; IC50 (neutralizing activity, pseudovirus) [31]: > 10 µg/mL; IC50 (neutralizing activity, pseudovirus) [32]: 1.23 µg/mL; IC50 (neutralizing activity, pseudovirus) [33]: > 10 µg/mL
4980_N08 (PGT-143) (antibody) | – | – | – | – | – | – | – | – | – | – | – | – | – | – | – | – | – | – | – | – | IC50 (neutralizing activity, pseudovirus) [21]: > 10 µg/mL; IC50 (neutralizing activity, pseudovirus) [34]: > 10 µg/mL; IC50 (neutralizing activity, pseudovirus) [22]: 0.585 µg/mL; IC50 (neutralizing activity, pseudovirus) [23]: 0.505 µg/mL; IC50 (neutralizing activity, pseudovirus) [24]: 0.0021 µg/mL; IC50 (neutralizing activity, pseudovirus) [25]: 4.43 µg/mL; IC50 (neutralizing activity, pseudovirus) [26]: 0.0064 µg/mL; neutralization IC50 (pseudovirus) [27]: > 10 µg/mL; IC50 (neutralizing activity, pseudovirus) [28]: 0.0028 µg/mL; IC50 (neutralizing activity, pseudovirus) [35]: > 10 µg/mL; IC50 (neutralizing activity, pseudovirus) [29]: > 10 µg/mL; IC50 (neutralizing activity, pseudovirus) [30]: 0.0657 µg/mL; IC50 (neutralizing activity, pseudovirus) [31]: > 10 µg/mL; IC50 (neutralizing activity, pseudovirus) [32]: 1.82 µg/mL; IC50 (neutralizing activity, pseudovirus) [33]: > 10 µg/mL
b12 (antibody) | > 50 | > 50 | > 50 | 13.9 | 13.3 | > 50 | > 50 | 5.46 | 1.51 | > 50 | > 50 | > 50 | > 50 | > 50 | 2.66 | > 50 | > 50 | > 50 | > 50 | > 50 | –
4993_K13 (PGT-141) (antibody) | – | – | – | – | – | – | – | – | – | – | – | – | – | – | – | – | – | – | – | – | IC50 (neutralizing activity, pseudovirus) [21]: > 10 µg/mL; IC50 (neutralizing activity, pseudovirus) [34]: > 10 µg/mL; IC50 (neutralizing activity, pseudovirus) [22]: 0.856 µg/mL; IC50 (neutralizing activity, pseudovirus) [23]: 0.822 µg/mL; IC50 (neutralizing activity, pseudovirus) [24]: 0.0016 µg/mL; IC50 (neutralizing activity, pseudovirus) [25]: 5.08 µg/mL; IC50 (neutralizing activity, pseudovirus) [26]: 0.0047 µg/mL; neutralization IC50 (pseudovirus) [27]: > 10 µg/mL; IC50 (neutralizing activity, pseudovirus) [28]: 0.0019 µg/mL; IC50 (neutralizing activity, pseudovirus) [35]: > 10 µg/mL; IC50 (neutralizing activity, pseudovirus) [29]: > 10 µg/mL; IC50 (neutralizing activity, pseudovirus) [30]: 0.0563 µg/mL; IC50 (neutralizing activity, pseudovirus) [31]: > 10 µg/mL; IC50 (neutralizing activity, pseudovirus) [32]: 2.35 µg/mL; IC50 (neutralizing activity, pseudovirus) [33]: > 10 µg/mL
4970_K22 (PGT-144) (antibody) | – | – | – | – | – | – | – | – | – | – | – | – | – | – | – | – | – | – | – | – | IC50 (neutralizing activity, pseudovirus) [21]: > 10 µg/mL; IC50 (neutralizing activity, pseudovirus) [34]: > 10 µg/mL; IC50 (neutralizing activity, pseudovirus) [22]: > 10 µg/mL; IC50 (neutralizing activity, pseudovirus) [23]: > 10 µg/mL; IC50 (neutralizing activity, pseudovirus) [24]: 0.158 µg/mL; IC50 (neutralizing activity, pseudovirus) [25]: > 10 µg/mL; IC50 (neutralizing activity, pseudovirus) [26]: 0.128 µg/mL; neutralization IC50 (pseudovirus) [27]: > 10 µg/mL; IC50 (neutralizing activity, pseudovirus) [28]: 0.0934 µg/mL; IC50 (neutralizing activity, pseudovirus) [35]: > 10 µg/mL; IC50 (neutralizing activity, pseudovirus) [29]: > 10 µg/mL; IC50 (neutralizing activity, pseudovirus) [30]: 4.02 µg/mL; IC50 (neutralizing activity, pseudovirus) [31]: > 10 µg/mL; IC50 (neutralizing activity, pseudovirus) [32]: > 10 µg/mL; IC50 (neutralizing activity, pseudovirus) [33]: > 10 µg/mL
2F5 (antibody) | > 50 | 44.7 | 18.4 | > 50 | > 50 | > 50 | > 50 | > 50 | > 50 | > 50 | > 50 | > 50 | > 50 | > 50 | > 50 | > 50 | > 50 | > 50 | > 50 | > 50 | –
2G12 (antibody) | 2.93 | > 50 | > 50 | > 50 | 1.75 | > 50 | > 50 | > 50 | > 50 | > 50 | > 50 | > 50 | > 50 | > 50 | > 50 | > 50 | > 50 | 18.6 | > 50 | > 50 | –
1495_C14 (PGC14) (antibody) | > 50 | > 50 | > 50 | > 50 | > 50 | > 50 | > 50 | > 50 | > 50 | > 50 | > 50 | > 50 | > 50 | > 50 | > 50 | > 50 | 12 | > 50 | > 50 | > 50 | –
